Test results taken from paper PMC3936715, “Structural and functional analysis of the three MIF4G domains of nonsense-mediated decay factor UPF2” (Nucleic Acids Research, 2013).

B1: UPF2 (121–1227), all three MIF4G domains and the UPF1 binding domain (domain or fragment, human, UniProt Q9HAU5 121-1227, looked up)
chain: MKEKEESIQLHQEAWERHHLRKELRSKNQNAPDSRPEENFFSRLDSSLKKNTAFVKKLKTITEQQRDSLSHDFNGLNLSKYIAEAVASIVEAKLKISDVNCAVHLCSLFHQRYADFAPSLLQVWKKHFEARKEEKTPNITKLRTDLRFIAELTIVGIFTDKEGLSLIYEQLKNIINADRESHTHVSVVISFCRHCGDDIAGLVPRKVKSAAEKFNLSFPPSEIISPEKQQPFQNLLKEYFTSLTKHLKRDHRELQNTERQNRRILHSKGELSEDRHKQYEEFAMSYQKLLANSQSLADLLDENMPDLPQDKPTPEEHGPGIDIFTPGKPGEYDLEGGIWEDEDARNFYENLIDLKAFVPAILFKDNEKSCQNKESNKDDTKEAKESKENKEVSSPDDLELELENLEINDDTLELEGGDEAEDLTKKLLDEQEQEDEEASTGSHLKLIVDAFLQQLPNCVNRDLIDKAAMDFCMNMNTKANRKKLVRALFIVPRQRLDLLPFYARLVATLHPCMSDVAEDLCSMLRGDFRFHVRKKDQINIETKNKTVRFIGELTKFKMFTKNDTLHCLKMLLSDFSHHHIEMACTLLETCGRFLFRSPESHLRTSVLLEQMMRKKQAMHLDARYVTMVENAYYYCNPPPAEKTVKKKRPPLQEYVRKLLYKDLSKVTTEKVLRQMRKLPWQDQEVKDYVICCMINIWNVKYNSIHCVANLLAGLVLYQEDVGIHVVDGVLEDIRLGMEVNQPKFNQRRISSAKFLGELYNYRMVESAVIFRTLYSFTSFGVNPDGSPSSLDPPEHLFRIRLVCTILDTCGQYFDRGSSKRKLDCFLVYFQRYVWWKKSLEVWTKDHPFPIDIDYMISDTLELLRPKIKLCNSLEESIRQVQDLEREFLIKLGLVNDKDSKDSMTEGENLEEDEEEEEGGAETEEQSGNESEVNEPEEEEGSDNDDDEGEEEEEENTDYLTDSNKENETDEENTEVMIKGGGLKHVPCVEDEDFIQALDKMMLENLQQRSGESVKVHQLDVAIPLHLKSQLRKGPPLGGGEGEAESADTMPFVMLTRKGNKQQFKILNVPMSSQLAANHWNQQQAEQEERMRMKKLTLDINERQEQED
notes: UPF2, human, Q9HAU5, residues 121-1227; the host of this construct is told only in the Supplementary Material
B2: UPF3b RRM domain (residues 42–143) (domain or fragment, UniProt Q9BZI7 42-143, looked up)
chain: RNKEKKEALSKVVIRRLPPTLTKEQLQEHLQPMPEHDYFEFFSNDTSLYPHMYARAYINFKNQEDIILFRDRFDGYVFLDNKGQEYPAIVEFAPFQKAAKKK
notes: UPF3b, RRM domain, residues 42-143; also called UPF3b RNP domain
B3: UPF2 MIF4G-3 domain (residues 761–1054) (domain or fragment, human, UniProt Q9HAU5 761-1054, looked up)
chain: EKTVKKKRPPLQEYVRKLLYKDLSKVTTEKVLRQMRKLPWQDQEVKDYVICCMINIWNVKYNSIHCVANLLAGLVLYQEDVGIHVVDGVLEDIRLGMEVNQPKFNQRRISSAKFLGELYNYRMVESAVIFRTLYSFTSFGVNPDGSPSSLDPPEHLFRIRLVCTILDTCGQYFDRGSSKRKLDCFLVYFQRYVWWKKSLEVWTKDHPFPIDIDYMISDTLELLRPKIKLCNSLEESIRQVQDLEREFLIKLGLVNDKDSKDSMTEGENLEEDEEEEEGGAETEEQSGNESEVNE
notes: UPF2, human, Q9HAU5, MIF4G-3 construct, residues 761-1054; Limits are printed for the construct 'which we used as substrate in our assays'; also called MIF4G domain 3
B4: preformed UPF2 MIF4G-3/UPF3b complex (complex)
chain 1: B3 chain
chain 2: B2 chain
notes: UPF2, human, Q9HAU5, MIF4G-3 construct, residues 761-1054; UPF3b, RRM domain, residues 42-143; also called UPF2 MIF4G-3 in complex with UPF3b; UPF2/UPF3b

Tests used:
[1] = molecular target: T1, SMG1 (full-length recombinant, wild-type, N-terminal SBP-tag) (UniProt Q96Q15 1-3661); assay: SPR; SMG1 immobilised via its N-terminal SBP-tag on a streptavidin (SA) chip, ~2000 RU, BIAcore 3000; analyte titrated at 25 µl/min; apparent KD from RUmax against concentration, one binding site model; conditions: both partners purified
T1 construct: SMG1, serine/threonine-protein kinase of the PIKK family, about 415 kDa, full-length, wild type; also called SMG1 kinase; wild-type SMG1; source: recombinant, purified; not shown: SBP, N-terminal, kept

[2] = molecular target: B3; assay: SPR; competition: SMG1 immobilised; MIF4G-3 at constant 50 nM injected with 0, 50, 250, 500 nM UPF3b RRM domain; conditions: both partners purified

T1 sequence (Q96Q15 whole entry): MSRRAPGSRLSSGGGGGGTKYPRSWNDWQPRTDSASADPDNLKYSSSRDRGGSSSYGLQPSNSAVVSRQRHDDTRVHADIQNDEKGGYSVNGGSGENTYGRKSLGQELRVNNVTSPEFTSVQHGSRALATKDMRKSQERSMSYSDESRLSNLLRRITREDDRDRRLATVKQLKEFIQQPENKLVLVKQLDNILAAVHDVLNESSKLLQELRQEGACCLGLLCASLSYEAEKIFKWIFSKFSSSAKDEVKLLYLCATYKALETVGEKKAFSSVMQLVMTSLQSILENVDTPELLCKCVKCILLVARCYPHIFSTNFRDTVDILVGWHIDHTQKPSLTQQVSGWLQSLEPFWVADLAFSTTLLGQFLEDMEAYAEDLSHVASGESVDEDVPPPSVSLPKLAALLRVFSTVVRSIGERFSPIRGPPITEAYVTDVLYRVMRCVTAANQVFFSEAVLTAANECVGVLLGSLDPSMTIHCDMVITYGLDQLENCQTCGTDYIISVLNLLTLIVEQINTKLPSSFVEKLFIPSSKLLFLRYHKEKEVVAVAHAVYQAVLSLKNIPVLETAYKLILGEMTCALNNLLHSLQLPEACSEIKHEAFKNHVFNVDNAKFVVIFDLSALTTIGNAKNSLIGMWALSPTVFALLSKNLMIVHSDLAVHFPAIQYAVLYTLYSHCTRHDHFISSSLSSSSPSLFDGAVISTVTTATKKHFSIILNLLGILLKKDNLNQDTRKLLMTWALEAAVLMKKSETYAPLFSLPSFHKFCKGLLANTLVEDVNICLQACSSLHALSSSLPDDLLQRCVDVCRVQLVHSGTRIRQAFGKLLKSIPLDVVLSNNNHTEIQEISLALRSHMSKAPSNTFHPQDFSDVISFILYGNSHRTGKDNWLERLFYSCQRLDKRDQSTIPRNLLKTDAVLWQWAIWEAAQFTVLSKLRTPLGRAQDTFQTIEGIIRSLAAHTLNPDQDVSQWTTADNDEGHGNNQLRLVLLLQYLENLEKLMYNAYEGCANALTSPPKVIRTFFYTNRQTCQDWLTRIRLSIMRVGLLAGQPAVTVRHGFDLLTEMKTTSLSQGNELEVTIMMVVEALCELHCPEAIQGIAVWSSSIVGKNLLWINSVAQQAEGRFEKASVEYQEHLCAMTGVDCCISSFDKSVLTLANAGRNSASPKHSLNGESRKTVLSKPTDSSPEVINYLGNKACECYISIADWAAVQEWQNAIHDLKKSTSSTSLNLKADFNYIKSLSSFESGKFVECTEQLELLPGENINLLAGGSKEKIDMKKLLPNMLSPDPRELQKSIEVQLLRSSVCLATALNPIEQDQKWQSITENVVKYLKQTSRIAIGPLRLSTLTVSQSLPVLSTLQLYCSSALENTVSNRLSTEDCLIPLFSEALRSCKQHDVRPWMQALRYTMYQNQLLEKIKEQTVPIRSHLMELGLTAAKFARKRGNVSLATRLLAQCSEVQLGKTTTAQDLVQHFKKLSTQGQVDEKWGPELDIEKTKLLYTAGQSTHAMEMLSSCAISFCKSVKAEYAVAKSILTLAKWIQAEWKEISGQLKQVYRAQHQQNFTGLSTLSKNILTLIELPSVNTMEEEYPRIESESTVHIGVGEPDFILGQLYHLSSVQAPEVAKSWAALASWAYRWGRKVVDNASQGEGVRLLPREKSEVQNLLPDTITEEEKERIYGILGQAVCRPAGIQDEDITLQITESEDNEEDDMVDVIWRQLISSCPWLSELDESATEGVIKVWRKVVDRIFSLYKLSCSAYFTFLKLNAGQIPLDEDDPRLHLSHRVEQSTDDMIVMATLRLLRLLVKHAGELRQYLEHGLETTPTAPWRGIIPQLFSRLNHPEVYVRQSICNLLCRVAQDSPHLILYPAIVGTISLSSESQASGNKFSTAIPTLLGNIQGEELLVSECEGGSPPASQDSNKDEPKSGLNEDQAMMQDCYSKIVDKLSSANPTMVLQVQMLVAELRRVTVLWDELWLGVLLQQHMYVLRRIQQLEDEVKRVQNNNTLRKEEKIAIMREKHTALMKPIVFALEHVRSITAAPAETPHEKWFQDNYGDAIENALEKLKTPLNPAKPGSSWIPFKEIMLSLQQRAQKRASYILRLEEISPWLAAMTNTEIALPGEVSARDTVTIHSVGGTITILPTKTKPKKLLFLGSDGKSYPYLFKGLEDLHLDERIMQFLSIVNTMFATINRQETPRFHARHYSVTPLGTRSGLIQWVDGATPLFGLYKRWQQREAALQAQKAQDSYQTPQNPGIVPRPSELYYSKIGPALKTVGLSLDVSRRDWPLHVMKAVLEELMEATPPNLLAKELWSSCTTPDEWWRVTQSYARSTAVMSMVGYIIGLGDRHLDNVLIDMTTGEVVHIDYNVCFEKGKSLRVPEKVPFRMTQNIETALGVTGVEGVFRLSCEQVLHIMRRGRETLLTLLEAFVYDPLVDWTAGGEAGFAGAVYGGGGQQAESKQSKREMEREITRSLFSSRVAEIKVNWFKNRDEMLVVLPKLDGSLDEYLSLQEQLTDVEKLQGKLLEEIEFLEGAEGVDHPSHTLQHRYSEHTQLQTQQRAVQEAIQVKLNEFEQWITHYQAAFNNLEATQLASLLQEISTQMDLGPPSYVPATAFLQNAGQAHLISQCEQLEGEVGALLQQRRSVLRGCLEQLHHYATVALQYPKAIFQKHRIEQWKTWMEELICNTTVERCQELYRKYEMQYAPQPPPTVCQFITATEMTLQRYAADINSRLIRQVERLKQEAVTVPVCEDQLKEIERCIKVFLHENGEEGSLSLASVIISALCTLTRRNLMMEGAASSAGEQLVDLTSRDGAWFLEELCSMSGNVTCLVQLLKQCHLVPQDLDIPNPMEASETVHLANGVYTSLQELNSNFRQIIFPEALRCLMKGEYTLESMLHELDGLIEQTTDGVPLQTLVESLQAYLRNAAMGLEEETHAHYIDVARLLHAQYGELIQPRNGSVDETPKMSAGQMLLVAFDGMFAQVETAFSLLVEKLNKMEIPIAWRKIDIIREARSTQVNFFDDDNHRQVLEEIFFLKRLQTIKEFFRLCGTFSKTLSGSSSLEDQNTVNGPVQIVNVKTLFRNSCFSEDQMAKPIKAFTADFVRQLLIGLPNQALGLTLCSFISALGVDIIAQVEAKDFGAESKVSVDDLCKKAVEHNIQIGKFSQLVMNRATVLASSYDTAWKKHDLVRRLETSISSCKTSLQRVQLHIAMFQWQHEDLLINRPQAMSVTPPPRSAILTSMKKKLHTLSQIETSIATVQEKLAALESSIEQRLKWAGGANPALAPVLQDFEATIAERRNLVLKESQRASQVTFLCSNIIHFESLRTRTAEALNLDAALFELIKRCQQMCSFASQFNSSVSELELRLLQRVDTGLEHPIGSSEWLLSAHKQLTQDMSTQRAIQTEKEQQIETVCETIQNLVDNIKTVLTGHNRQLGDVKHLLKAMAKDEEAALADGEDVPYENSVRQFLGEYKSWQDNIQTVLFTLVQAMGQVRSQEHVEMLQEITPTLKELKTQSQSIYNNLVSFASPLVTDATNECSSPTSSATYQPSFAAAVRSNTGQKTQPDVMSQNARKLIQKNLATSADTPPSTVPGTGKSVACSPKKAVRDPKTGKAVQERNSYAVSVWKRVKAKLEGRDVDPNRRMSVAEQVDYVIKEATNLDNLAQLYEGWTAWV

Row | Kd [1] | binding result [2] | Binder
1 | 37 ± 5 nM |  | B1
2 |  | binds | B2
3 | 60 ± 5 nM |  | B3
4 | 34 ± 2 nM |  | B4
